According to article PMC3160285, “Fukutin-Related Protein Resides in the Golgi Cisternae of Skeletal Muscle Fibres and Forms Disulfide-Linked Homodimers via an N-Terminal Interaction” (PLoS ONE, 2011):
Where a chain is given by its changes, count along the chain named. Names and notes keep the numbering of the source.

B1: FKRP Cys168Ser (natural protein, human, UniProt Q9H9S5 1-495, looked up)
chain: MRLTRCQAALAAAITLNLLVLFYVSWLQHQPRNSRARGPRRASAAGPRVTVLVREFEAFDNAVPELVDSFLQQDPAQPVVVAADTLPYPPLALPRIPNVRLALLQPALDRPAAASRPETYVATEFVALVPDGARAEAPGLLERMVEALRAGSARLVAAPVATANPARSLALNVSLREWTARYGAAPAAPRCDALDGDAVVLLRARDLFNLSAPLARPVGTSLFLQTALRGWAVQLLDLTFAAARQPPLATAHARWKAEREGRARRAALLRALGIRLVSWEGGRLEWFGCNKETTRCFGTVVGDTPAYLYEERWTPPCCLRALRETARYVVGVLEAAGVRYWLEGGSLLGAARHGDIIPWDYDVDLGIYLEDVGNCEQLRGAEAGSVVDERGFVWEKAVEGDFFRVQYSESNHLHVDLWPFYPRNGVMTKDTWLDHRQDVEFPEHFLQPLVPLPFAGFVAQAPNNYRRFLELKFGPGVIENPQYPNPALLSLTGSG
notes: fukutin-related protein (FKRP), human, 495 aa, made from pcDNA3.1-FKRP by site-directed mutagenesis; also called FKRP-C168S; source: COS-7, transfected, in lysate (5 mM NEM)
B2: FKRP Cys296Ser (natural protein, human, UniProt Q9H9S5 1-495, looked up)
chain: B1 chain with S168C, C296S
notes: fukutin-related protein (FKRP), human, 495 aa, made from pcDNA3.1-FKRP by site-directed mutagenesis; also called FKRP-C296S; source: COS-7, transfected, in lysate (5 mM NEM)
B3: FKRP Cys375Ser (natural protein, human, UniProt Q9H9S5 1-495, looked up)
chain: B1 chain with S168C, C375S
notes: fukutin-related protein (FKRP), human, 495 aa, made from pcDNA3.1-FKRP by site-directed mutagenesis; also called FKRP-C375S; source: COS-7, transfected, in lysate (5 mM NEM)
B4: FKRP-Asn209Gln (natural protein, human, UniProt Q9H9S5 1-495, looked up)
chain: B1 chain with S168C, N209Q
notes: fukutin-related protein (FKRP), human, 495 aa, made from pcDNA3.1-FKRP by site-directed mutagenesis; source: COS-7, transfected, in lysate (5 mM NEM)
B5: Fukutin-related protein (FKRP), human, wild type, untagged (pcDNA3.1-FKRP) (natural protein, UniProt Q9H9S5 1-495, looked up)
chain: B1 chain with S168C
modifications: N-linked glycans of high mannose and/or hybrid type at Asn172 and Asn209
notes: fukutin-related protein (FKRP), human, 495 aa; Same construct expressed in two cell lines; the assay's format names the cell line; also called hFKRP; full length FKRP; source: COS-7 or BHK-21, transfected (pcDNA3.1-FKRP), in lysate
B6: FKRP-Cys289Ser (natural protein, human, UniProt Q9H9S5 1-495, looked up)
chain: B1 chain with S168C, C289S
notes: fukutin-related protein (FKRP), human, 495 aa, made from pcDNA3.1-FKRP by site-directed mutagenesis; also called FKRP-C289S; source: COS-7, transfected, in lysate (5 mM NEM)
B7: FKRP Cys191Ser (natural protein, human, UniProt Q9H9S5 1-495, looked up)
chain: B1 chain with S168C, C191S
notes: fukutin-related protein (FKRP), human, 495 aa, made from pcDNA3.1-FKRP by site-directed mutagenesis; also called FKRP-C191S; source: COS-7, transfected, in lysate (5 mM NEM)
B8: FKRP-Asn172Gln/Asn209Gln (natural protein, human, UniProt Q9H9S5 1-495, looked up)
chain: B1 chain with S168C, N172Q, N209Q
notes: fukutin-related protein (FKRP), human, 495 aa, made from pcDNA3.1-FKRP by site-directed mutagenesis; also called double mutant; source: COS-7, transfected, in lysate (5 mM NEM)
B9: FKRP-Asn172Gln (natural protein, human, UniProt Q9H9S5 1-495, looked up)
chain: B1 chain with S168C, N172Q
notes: as for B4
B10: FKRP-373 (C-terminal truncation mutant of FKRP) (domain or fragment, human, UniProt Q9H9S5 1-373, looked up)
chain: MRLTRCQAALAAAITLNLLVLFYVSWLQHQPRNSRARGPRRASAAGPRVTVLVREFEAFDNAVPELVDSFLQQDPAQPVVVAADTLPYPPLALPRIPNVRLALLQPALDRPAAASRPETYVATEFVALVPDGARAEAPGLLERMVEALRAGSARLVAAPVATANPARCLALNVSLREWTARYGAAPAAPRCDALDGDAVVLLRARDLFNLSAPLARPVGTSLFLQTALRGWAVQLLDLTFAAARQPPLATAHARWKAEREGRARRAALLRALGIRLVSWEGGRLEWFGCNKETTRCFGTVVGDTPAYLYEERWTPPCCLRALRETARYVVGVLEAAGVRYWLEGGSLLGAARHGDIIPWDYDVDLGIYLEDVG
notes: fukutin-related protein (FKRP), human; C-terminal truncation, last amino acid 373; source: COS-7, transfected, in lysate (5 mM NEM)
B11: FKRP-157 (C-terminal truncation mutant of FKRP) (domain or fragment, human, UniProt Q9H9S5 1-157, looked up)
chain: MRLTRCQAALAAAITLNLLVLFYVSWLQHQPRNSRARGPRRASAAGPRVTVLVREFEAFDNAVPELVDSFLQQDPAQPVVVAADTLPYPPLALPRIPNVRLALLQPALDRPAAASRPETYVATEFVALVPDGARAEAPGLLERMVEALRAGSARLVA
notes: fukutin-related protein (FKRP), human; source: COS-7, transfected, in lysate (5 mM NEM)
B12: FKRP-282 (C-terminal truncation mutant of FKRP) (domain or fragment, human, UniProt Q9H9S5 1-282, looked up)
chain: MRLTRCQAALAAAITLNLLVLFYVSWLQHQPRNSRARGPRRASAAGPRVTVLVREFEAFDNAVPELVDSFLQQDPAQPVVVAADTLPYPPLALPRIPNVRLALLQPALDRPAAASRPETYVATEFVALVPDGARAEAPGLLERMVEALRAGSARLVAAPVATANPARCLALNVSLREWTARYGAAPAAPRCDALDGDAVVLLRARDLFNLSAPLARPVGTSLFLQTALRGWAVQLLDLTFAAARQPPLATAHARWKAEREGRARRAALLRALGIRLVSWEGG
notes: fukutin-related protein (FKRP), human; C-terminal truncation, last amino acid 282; source: COS-7, transfected, in lysate (5 mM NEM)

Target: the molecule itself
Assay: SDS-PAGE (non-reducing and reducing) with Western blot; cleared COS-7 lysates prepared with 5 mM NEM; untreated or reduced with 330-400 mM DTT at RT for 30 min; 4-12% gel; detection with FKRP207 antibody

Molecule | stoichiometry N
B1 | 2
B2 | 2
B3 | 2
B4 | 2
B5 | 2
B6 | 2
B7 | 2
B8 | 2
B9 | 2
B10 | 2
B11 | 2
B12 | 2

Target: FKRP Cys317Ser/Cys318Ser (human) (UniProt Q9H9S5)
Assay: as above

Molecule | stoichiometry N
FKRP Cys317Ser/Cys318Ser (from UniProt Q9H9S5 1-495) (natural protein) | 2
